Measurements published in FireProtDB (doi:10.1016/j.bpc.2007.01.004).
Several values for one entry are separate records, joined by “and”; a condition that tells them apart may be missing. Identical values can stand only once.

Details: Alicyclobacillus acidocaldarius subsp. acidocaldarius, pH 7.5, Phosphate 20 mM, reversible: Yes; for denaturant midpoint (higher = more stable): 20 °C

With wild type (from UniProt Q7SIG1) the “denaturant midpoint (higher = more stable)” value (from here on “denaturant midpoint”) (GdnHCl, CD) was 1.9 M and 2.2 M, the “denaturant midpoint” value (GdnHCl, Fluorescence) was 1.9 M and 2 M and 2.2 M and the “denaturant midpoint” value (Urea, CD) was 5.9 M and 4.6 M. For the same substance, the Tm (Thermal, CD) was 91 °C and 86 °C, the “unfolding enthalpy (van 't Hoff)” value (Thermal, CD) was 105 kcal/mol and 122 kcal/mol and 62.1 kcal/mol and the Tm (Thermal, DSC) was 86 °C. The “heat capacity change of unfolding” value (Thermal, DSC) was 3.82 kcal/mol/K, the “unfolding enthalpy (calorimetric)” value (Thermal, DSC) was 265 kcal/mol and 179 kcal/mol and the “unfolding enthalpy (van 't Hoff)” value (Thermal, DSC) was 127 kcal/mol and 83.7 kcal/mol. The “heat capacity change of unfolding” value (Thermal, DSC, transition: 3) was 1.67 kcal/mol/K and 2.15 kcal/mol/K.
